Results: patent US11370833B2, “Antibody formulations” (Genentech, Inc., priority 2014, dated 2022)

Experiments:
Format in all cases: physicochemical
[1] = FT-NIR trehalose crystallization after frozen storage (freeze rate and storage temperature studies)
Experimental: To prepare the samples for slow and normal freezing, two milliliter sample aliquots were dispensed into autoclaved 5 cc glass vials and sealed with 20 mm Lyo-Stoppers using aseptic technique in a ventilated biosafety hood with laminar air flow. Slow freezing was accomplished by placing sample vials in a lyophilizer on pre-cooled shelves and held between −1° C. and −3° C. for 24 hours.
(§1) Normal freezing was accomplished by placing sample vials in a freezer at −20° C. until samples were completely frozen. To control for supercooling, ice was nucleated by applying frozen CO2 to the side of each vial until ice formation.
(§2) Fast freezing was accomplished by quench cooling fifty microliter sample aliquots drop-wise into liquid nitrogen. The freezing endpoint was determined by the increased opacity and the sinking of the sphere from the surface into a stainless steel mesh collection basket. After freezing, one-milliliter aliquots of bulk drug substance frozen pellets were removed from the liquid nitrogen and transferred into sterile, pre-chilled 5 cc glass vials. The vials were then stored on frozen CO2, and sealed with 20 mm Lyo-Stoppers. The formulation screen samples were fast frozen in 96-well microplates using liquid nitrogen. Immediately after the microplates were frozen, the samples were nucleated by scratching the ice surface with a 24 gauge needles (BD, Franklin Lakes, N.J.).
Samples frozen at the three freeze rates (slow, normal, and fast) by the methods described were transferred to three freezer units with set points of −20° C., −14° C., and −8° C. with a range of ±2° C. for frozen storage. The freezer temperature was monitored using a Yokogawa temperature monitoring system (Yokogawa Meters and Instruments Corporation, Tokyo, Japan). Sample vials were pulled after 0, 1, 2, 3, 6, 9 and 12 months of isothermal, frozen storage and placed on the lab counter bench under ambient conditions (approximately 22° C.) and allowed to thaw prior to analysis.
Samples intended for trehalose crystallization determination were first freeze-dried using a LyoStar II lyophilizer unit controlled by LyoManager II software (FTS Systems, Stone Ridge, N.Y.). The frozen samples were placed on a pre-cooled shelf and held at −35° C. for 7 hours prior to primary drying. Primary drying was achieved under a system pressure of 150 μm Hg by linearly increasing the shelf temperature to 20° C. at a rate of 0.2° C./min, followed by a 40 hour hold at 20° C. Secondary drying was performed by linearly increasing shelf temperature to 30° C. at 0.2° C./min, followed by an 8 hour hold at 30° C. Thermocouples were placed in various sample vials to monitor temperature during freeze-drying. Following secondary drying, sample vials were stoppered while still under vacuum to prevent samples from hydrating prior to analysis. Low volume (300 microliter), formulation screen samples were lyophilized in 96-well glass plates (Zinsser, Germany) using the same lyophilization method.
The percent trehalose crystallization was determined using near infrared diffuse reflectance spectroscopy. Data collection, calibration, and analysis methods used in this study were adapted from previous work focused on characterizing the spectral differences between amorphous trehalose and crystalline trehalose polymorphs (Connolly, B., et al. (2010) Anal. Biochem. 399(1):48-57). Using these methods, sample NIR spectra were recorded from 10,000-4,000 cm^−1 using 32 averaged scans with 4 cm^−1 resolution on a Nicolet Antaris FT-Near IR Analyzer equipped with an integrating sphere module (Thermo Fisher Scientific, Waltham, Mass.). Percent trehalose crystallization was calculated using normalized peak intensity ratios of bands at 4306 cm^−1 and 4291 cm^−1 (Connolly, B., et al. (2010) Anal. Biochem. 399(1):48-57). Data analysis was conducted using a linear regression analysis with MATLAB (R2007a, The MathWorks, Natick, Massachussetts) (Connolly, B., et al. (2010) Anal. Biochem. 399(1):48-57). […]

[2] = Formulation composition study: FT-NIR percent trehalose crystallization; conditions: trehalose 34.2% (wt/v), fast frozen, 12 months at −20° C.
Experimental: as §2
The formulation screen sample microplates were stored at two temperatures (−20±2° C., and −40±2° C.). The freezer temperature was monitored using a Yokogawa temperature monitoring system (Yokogawa Meters and Instruments Corporation, Tokyo, Japan).
Sample microplates for SEC analysis were stored isothermally for up to 365 days. Following frozen storage, microplates were thawed on the lab counter bench under ambient conditions (approximately 22° C.) prior to analysis. Control (0 day) samples were thawed immediately following completion of the freezing process. […]
The percent trehalose crystallization was determined using near infrared diffuse reflectance spectroscopy. […] Using these methods, sample NIR spectra were recorded from 10,000-4,000 cm^−1 using 32 averaged scans with 4 cm^−1 resolution on a Nicolet Antaris FT-Near IR Analyzer equipped with an integrating sphere module (Thermo Fisher Scientific, Waltham, Mass.). Percent trehalose crystallization was calculated using normalized peak intensity ratios of bands at 4306 cm^−1 and 4291 cm^−1 (Connolly, B., et al. (2010) Anal. Biochem. 399(1):48-57). […] Low volume (300 microliter) formulation screen samples were lyophilized and then analyzed for percent trehalose crystallization using the same method.

[3] = Turbidity analysis and visual inspection for precipitates; conditions: fast freeze samples
Experimental: The turbidity of the samples was measured by recording the average absorbance from 340-360 nm in a quartz cuvette with 1-cm path length (Eckhardt, B. M., et al. (1991) Pharm. Res. 8:1360-4) on an HP8453 spectrophotometer using Chemstation software (Agilent Technologies, Santa Clara, Calif.). Sterile water for injection was used to blank the instrument prior to analyses. Turbidity analysis of formulation screen samples was performed on a UV transparent, Corning half area, 96-well microplate using Spectramax M2 instrument (Molecular Devices, Sunnyvale). The turbidity was measured against a Sterile Water for Injection blank and the turbidity value measured by recording the average of the absorbance from 340-360 nm.

[4] = Visual trehalose crystallization in frozen trehalose solutions with pH indicating dye; conditions: 2.0, 4.0 and 8.0% (wt/v) trehalose, 20 mM histidine-acetate pH 5.5; normal freeze rate, −20° C. for 6 days
Experimental: Additional solutions were prepared with 0.0, 2.0, 4.0, and 8.0% (wt/v) trehalose in 20 mM histidine-acetate, at pH 5.5, and Water for Injection. Fifty microliters of pHydrion (pH Range: 0-7) pH-indicator dye (Micro Essential Laboratory, NY) was dispensed into a 10 cc glass vial and allowed to evaporate. Approximately four milliliters of the various trehalose formulations were added to the vial and the dye was allowed to dissolve in the solution. Photographs of frozen trehalose solutions were obtained using an Olympus Stylus 770SW digital camera (Olympus America Inc., NJ) in supermacro mode.
as §1
It is of significant interest to understand if trehalose crystallization impacts protein stability at pharmaceutically relevant (≤10% wt/v) concentrations. To evaluate the impact of nominal trehalose concentration on excipient crystallization, solutions were prepared with 0.0, 2.0, 4.0 and 8.0% (wt/v) trehalose dihydrate in the presence of pH indicating dye to better visualize crystallization. The samples were frozen using the normal freeze rate and stored at −20° C. for 6 days.

[5] = Fast freeze, 12 months frozen storage at −8° C.
[6] = Fast freeze, 12 months frozen storage at −14° C.
[7] = Fast freeze, 12 months frozen storage at −20° C.
[8] = Normal freeze, 12 months frozen storage at −8° C.
[9] = Normal freeze, 12 months frozen storage at −14° C.
[10] = Normal freeze, 12 months frozen storage at −20° C.
[11] = Slow freeze, 12 months frozen storage at −8° C.
[12] = Slow freeze, 12 months frozen storage at −14° C.
[13] = Slow freeze, 12 months frozen storage at −20° C.

Bevacizumab: recombinant humanized anti-VEGF IgG1 monoclonal antibody; 25 mg/mL in 5.4% trehalose, 51 mM sodium phosphate pH 6.2, 0.04% polysorbate 20
trehalose crystallization by FT-NIR, fast freeze samples ([1]; 12 month samples, fast freeze): measurable amounts of trehalose crystallization | trehalose crystallization by FT-NIR, slow and normal freeze samples ([1]; 12 month samples, slow and normal freeze): no measurable amounts of trehalose crystallization | Amorphous Trehalose [1, 5]: 3.8 % wt/v | Crystallized Trehalose [1, 5]: 1.6 % wt/v | Amorphous Trehalose [1, 6]: 2.9 % wt/v | Crystallized Trehalose [1, 6]: 2.5 % wt/v | Amorphous Trehalose [1, 7]: 3.0 % wt/v | Crystallized Trehalose [1, 7]: 2.5 % wt/v | Amorphous Trehalose [1, 8]: 5.2 % wt/v | Crystallized Trehalose [1, 8]: 0.3 % wt/v | Amorphous Trehalose [1, 9]: 5.1 % wt/v | Crystallized Trehalose [1, 9]: 0.3 % wt/v | Amorphous Trehalose [1, 10]: 5.1 % wt/v | Crystallized Trehalose [1, 10]: 0.3 % wt/v | Amorphous Trehalose [1, 11]: 5.2 % wt/v | Crystallized Trehalose [1, 11]: 0.2 % wt/v | Amorphous Trehalose [1, 12]: 5.2 % wt/v | Crystallized Trehalose [1, 12]: 0.3 % wt/v | Amorphous Trehalose [1, 13]: 5.1 % wt/v | Crystallized Trehalose [1, 13]: 0.3 % wt/v | percent crystallized trehalose ([2]; [bevacizumab]=25 mg/mL): 61% | percent crystallized trehalose ([2]; [bevacizumab]=100 mg/mL): 47% | precipitates by turbidity analysis and visual inspection [3]: formation of precipitates

OC[C@H]1O[C@H](O[C@H]2O[C@H](CO)[C@@H](O)[C@H](O)[C@H]2O)[C@H](O)[C@@H](O)[C@@H]1O [trehalose]
time at which trehalose crystallization reaches a plateau ([1]; frozen storage, data not shown): ≤ 2 weeks | percent crystallized trehalose ([2]; [bevacizumab]=0 mg/mL): 86% | visual trehalose crystallization after induced nucleation [4]: visually observed
